# In the RNAGym collection of RNA variant scans (doi:10.7554/elife.80360):
# B1: CPEB3 Ribozyme (parent)
# chain: GGGGGCCACAGCAGAAGCGUUCACGUCGCGGCCCCUGUCAGAUUCUGGUGAAUCUGCGAAUUCUGCUGU
# Variants of: B1
# Experiment: self-cleavage, relative activity (ratio to wild type); higher = more cleavage; co-transcriptional
row,Variant,self-cleavage
1,G2C A52C,0.0825
2,G2A U53G,0.109
3,G2A U64G,0.0844
4,G2A U64A,0.115
5,G2A U64C,0.0804
6,G1U G14A,0.118
7,G1U G14C,0.133
8,G1U U55C,0.0608
9,G1U U55G,0.118
10,G1U U55A,0.109
11,G2A U36G,0.209
12,G2A U36A,0.0357
13,G2A U36C,0.129
14,G2C A13U,0.0221
15,G2C A13G,0.084
16,G1U U43A,0.0877
17,G1U U43G,0.113
18,G1U U43C,0.127
19,G1U C57G,0.0901
20,G1U C57U,0.0565
21,G2C C12G,0.0599
22,G2C C12U,0.065
23,G2A C34A,0.0453
24,G2A C34U,0.106

row,Variant,self-cleavage
1,G2A U46G,0.135
2,G2A U46C,0.13
3,G2A U46A,0.202
4,G2A U21C,0.0698
5,G2A U21G,0.0545
6,G2A U21A,0.114
7,G2A A15U,0.0881
8,G2A A15C,0.0708
9,G1U G37A,0.0613
10,G2A A51C,0.0717
11,G2A A51U,0.233
12,G2A A51G,0.158
13,G1U G50C,0.0733
14,G1U G50U,0.056
15,G2A U20G,0.0568
16,G1U G28A,0.0369
17,G1U G28C,0.0671
18,G1U U38G,0.0202
19,G1U U38C,0.0816
20,G1U G56C,0.105
21,G1U G56U,0.108
22,G2C C63G,0.0678
23,G2A C54A,0.112
24,G2A C54U,0.152

row,Variant,self-cleavage
1,G2C A42G,0.0702
2,G2A U62G,0.129
3,G2A U62C,0.146
4,G2A U62A,0.11
5,G2A C39U,0.072
6,G2A C39A,0.032
7,G1U U20A,0.042
8,G2A C32U,0.0612
9,G2A C63G,0.0931
10,G2A C63U,0.173
11,G2C C35G,0.313
12,G2C C35A,0.0223
13,G2A A23C,0.111
14,G2A A23G,0.15
15,G2A C24G,0.0162
16,G1U U64C,0.0613
17,G1U U64G,0.117
18,G1U U64A,0.0494
19,G2A G11U,0.117
20,G2A G11A,0.101
21,G2A G11C,0.0914
22,G2C C29G,0.0119
23,G2C C29U,0.0639
24,G2C A40C,0.0316

row,Variant,self-cleavage
1,G2C A40U,0.0469
2,G2C A40G,0.0911
3,G1U U36C,0.102
4,G1U U36G,0.0723
5,G1U G3A,0.04
6,G1U G3C,0.0566
7,G1U G3U,0.0448
8,G1U G48A,0.192
9,G1U G48C,0.0782
10,G1U G48U,0.079
11,G2A U49C,0.21
12,G2A U49G,0.149
13,G1U G11A,0.0662
14,G2A C27A,0.0442
15,G2A C27U,0.0441
16,G2A C27G,0.0739
17,G1U G31C,0.0835
18,G1U G31U,0.0933
19,G1U G31A,0.0918
20,G1U U69G,0.265
21,G1U U69A,0.194
22,G2A C33A,0.0406
23,G2A C33U,0.0941
24,G2A G31A,0.0613

row,Variant,self-cleavage
1,G1U U49A,0.124
2,G1U U49G,0.152
3,G1U U49C,0.0511
4,G1U G4A,0.112
5,G1U G4U,0.127
6,G1U G4C,0.0734
7,G2A A42U,0.0966
8,G2A A42C,0.0844
9,G2A G47C,0.176
10,G2A G47A,0.189
11,G1U G65U,0.0644
12,G1U G65C,0.0555
13,G1U G65A,0.0898
14,G2C C34U,0.0646
15,G2C C34A,0.0678
16,G2C A51C,0.0374
17,G2C A51G,0.0786
18,G2A A16U,0.1
19,G2C C33A,0.0155
20,G2C C33U,0.0465
21,G2C C33G,0.0592
22,G2C G28A,0.0369
23,G2C G28C,0.0457
24,G2C G28U,0.0543

row,Variant,self-cleavage
1,G2C C7A,0.0323
2,G2C C7U,0.0258
3,G1U C63A,0.101
4,G1U C63U,0.0897
5,G2C C45U,0.0464
6,G2C C45A,0.0472
7,G2C C45G,0.0374
8,G1U G68A,0.129
9,G1U G68U,0.173
10,G1U G68C,0.0929
11,G1U U62A,0.137
12,G1U U62G,0.0907
13,G1U U62C,0.0771
14,G2C G11A,0.0352
15,G2C G11C,0.0455
16,G2C G11U,0.0219
17,G1U C45U,0.152
18,G1U C45G,0.134
19,G2A A52U,0.12
20,G2A A52G,0.242
21,G2A U67C,0.242
22,G2A U67G,0.167
23,G2A U67A,0.281
24,G1U G5C,0.0789

row,Variant,self-cleavage
1,G1U C34A,0.184
2,G1U C34G,0.123
3,G1U U46G,0.0728
4,G1U U46A,0.123
5,G2A G5C,0.122
6,G2A G5A,0.0392
7,G2C A59C,0.027
8,G2C A59U,0.0322
9,G2A C6A,0.044
10,G2A C6G,0.0574
11,G2A C6U,0.0868
12,G1U U61A,0.0989
13,G1U U61G,0.208
14,G1U C54A,0.116
15,G1U C54G,0.099
16,G2A G14U,0.0746
17,G2A G14A,0.0649
18,G2A G14C,0.075
19,G2A G25U,0.0625
20,G2A G25C,0.0386
21,G2A U55A,0.109
22,G2A U55G,0.0739
23,G2A U55C,0.0545
